Assay [1] addresses FGFR1 (Homo sapiens) (UniProt P11362). Kind of assay: surface plasmon resonance. To be noted: cited from earlier work.
Assay [2] shares this target. The experiment in a line: surface plasmon resonance. The conditions noted are these: cited from earlier work. The source holds these as a separate data set. Background: Surface plasmon resonance follows binding to a sensor surface in real time, without labels.
The target of assay [3] is FGF2 (Homo sapiens) (UniProt P09038). Kind of assay: SPR. To be noted: cited from earlier work.
Chain of FGF2 (Homo sapiens) (P09038 143-288): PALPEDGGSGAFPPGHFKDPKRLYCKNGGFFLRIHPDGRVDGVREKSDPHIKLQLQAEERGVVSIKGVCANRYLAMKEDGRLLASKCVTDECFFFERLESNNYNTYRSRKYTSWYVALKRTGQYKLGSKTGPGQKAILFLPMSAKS
For assay [4] the target is unchanged. The experiment in a line: SPR. To be noted: cited from earlier work. The source holds these as a separate data set.
Assay [5] concerns the target low density lipoprotein receptor-related protein (LRP) (UniProt Q07954).

Chain of low density lipoprotein receptor-related protein (LRP) (Q07954 20-4544): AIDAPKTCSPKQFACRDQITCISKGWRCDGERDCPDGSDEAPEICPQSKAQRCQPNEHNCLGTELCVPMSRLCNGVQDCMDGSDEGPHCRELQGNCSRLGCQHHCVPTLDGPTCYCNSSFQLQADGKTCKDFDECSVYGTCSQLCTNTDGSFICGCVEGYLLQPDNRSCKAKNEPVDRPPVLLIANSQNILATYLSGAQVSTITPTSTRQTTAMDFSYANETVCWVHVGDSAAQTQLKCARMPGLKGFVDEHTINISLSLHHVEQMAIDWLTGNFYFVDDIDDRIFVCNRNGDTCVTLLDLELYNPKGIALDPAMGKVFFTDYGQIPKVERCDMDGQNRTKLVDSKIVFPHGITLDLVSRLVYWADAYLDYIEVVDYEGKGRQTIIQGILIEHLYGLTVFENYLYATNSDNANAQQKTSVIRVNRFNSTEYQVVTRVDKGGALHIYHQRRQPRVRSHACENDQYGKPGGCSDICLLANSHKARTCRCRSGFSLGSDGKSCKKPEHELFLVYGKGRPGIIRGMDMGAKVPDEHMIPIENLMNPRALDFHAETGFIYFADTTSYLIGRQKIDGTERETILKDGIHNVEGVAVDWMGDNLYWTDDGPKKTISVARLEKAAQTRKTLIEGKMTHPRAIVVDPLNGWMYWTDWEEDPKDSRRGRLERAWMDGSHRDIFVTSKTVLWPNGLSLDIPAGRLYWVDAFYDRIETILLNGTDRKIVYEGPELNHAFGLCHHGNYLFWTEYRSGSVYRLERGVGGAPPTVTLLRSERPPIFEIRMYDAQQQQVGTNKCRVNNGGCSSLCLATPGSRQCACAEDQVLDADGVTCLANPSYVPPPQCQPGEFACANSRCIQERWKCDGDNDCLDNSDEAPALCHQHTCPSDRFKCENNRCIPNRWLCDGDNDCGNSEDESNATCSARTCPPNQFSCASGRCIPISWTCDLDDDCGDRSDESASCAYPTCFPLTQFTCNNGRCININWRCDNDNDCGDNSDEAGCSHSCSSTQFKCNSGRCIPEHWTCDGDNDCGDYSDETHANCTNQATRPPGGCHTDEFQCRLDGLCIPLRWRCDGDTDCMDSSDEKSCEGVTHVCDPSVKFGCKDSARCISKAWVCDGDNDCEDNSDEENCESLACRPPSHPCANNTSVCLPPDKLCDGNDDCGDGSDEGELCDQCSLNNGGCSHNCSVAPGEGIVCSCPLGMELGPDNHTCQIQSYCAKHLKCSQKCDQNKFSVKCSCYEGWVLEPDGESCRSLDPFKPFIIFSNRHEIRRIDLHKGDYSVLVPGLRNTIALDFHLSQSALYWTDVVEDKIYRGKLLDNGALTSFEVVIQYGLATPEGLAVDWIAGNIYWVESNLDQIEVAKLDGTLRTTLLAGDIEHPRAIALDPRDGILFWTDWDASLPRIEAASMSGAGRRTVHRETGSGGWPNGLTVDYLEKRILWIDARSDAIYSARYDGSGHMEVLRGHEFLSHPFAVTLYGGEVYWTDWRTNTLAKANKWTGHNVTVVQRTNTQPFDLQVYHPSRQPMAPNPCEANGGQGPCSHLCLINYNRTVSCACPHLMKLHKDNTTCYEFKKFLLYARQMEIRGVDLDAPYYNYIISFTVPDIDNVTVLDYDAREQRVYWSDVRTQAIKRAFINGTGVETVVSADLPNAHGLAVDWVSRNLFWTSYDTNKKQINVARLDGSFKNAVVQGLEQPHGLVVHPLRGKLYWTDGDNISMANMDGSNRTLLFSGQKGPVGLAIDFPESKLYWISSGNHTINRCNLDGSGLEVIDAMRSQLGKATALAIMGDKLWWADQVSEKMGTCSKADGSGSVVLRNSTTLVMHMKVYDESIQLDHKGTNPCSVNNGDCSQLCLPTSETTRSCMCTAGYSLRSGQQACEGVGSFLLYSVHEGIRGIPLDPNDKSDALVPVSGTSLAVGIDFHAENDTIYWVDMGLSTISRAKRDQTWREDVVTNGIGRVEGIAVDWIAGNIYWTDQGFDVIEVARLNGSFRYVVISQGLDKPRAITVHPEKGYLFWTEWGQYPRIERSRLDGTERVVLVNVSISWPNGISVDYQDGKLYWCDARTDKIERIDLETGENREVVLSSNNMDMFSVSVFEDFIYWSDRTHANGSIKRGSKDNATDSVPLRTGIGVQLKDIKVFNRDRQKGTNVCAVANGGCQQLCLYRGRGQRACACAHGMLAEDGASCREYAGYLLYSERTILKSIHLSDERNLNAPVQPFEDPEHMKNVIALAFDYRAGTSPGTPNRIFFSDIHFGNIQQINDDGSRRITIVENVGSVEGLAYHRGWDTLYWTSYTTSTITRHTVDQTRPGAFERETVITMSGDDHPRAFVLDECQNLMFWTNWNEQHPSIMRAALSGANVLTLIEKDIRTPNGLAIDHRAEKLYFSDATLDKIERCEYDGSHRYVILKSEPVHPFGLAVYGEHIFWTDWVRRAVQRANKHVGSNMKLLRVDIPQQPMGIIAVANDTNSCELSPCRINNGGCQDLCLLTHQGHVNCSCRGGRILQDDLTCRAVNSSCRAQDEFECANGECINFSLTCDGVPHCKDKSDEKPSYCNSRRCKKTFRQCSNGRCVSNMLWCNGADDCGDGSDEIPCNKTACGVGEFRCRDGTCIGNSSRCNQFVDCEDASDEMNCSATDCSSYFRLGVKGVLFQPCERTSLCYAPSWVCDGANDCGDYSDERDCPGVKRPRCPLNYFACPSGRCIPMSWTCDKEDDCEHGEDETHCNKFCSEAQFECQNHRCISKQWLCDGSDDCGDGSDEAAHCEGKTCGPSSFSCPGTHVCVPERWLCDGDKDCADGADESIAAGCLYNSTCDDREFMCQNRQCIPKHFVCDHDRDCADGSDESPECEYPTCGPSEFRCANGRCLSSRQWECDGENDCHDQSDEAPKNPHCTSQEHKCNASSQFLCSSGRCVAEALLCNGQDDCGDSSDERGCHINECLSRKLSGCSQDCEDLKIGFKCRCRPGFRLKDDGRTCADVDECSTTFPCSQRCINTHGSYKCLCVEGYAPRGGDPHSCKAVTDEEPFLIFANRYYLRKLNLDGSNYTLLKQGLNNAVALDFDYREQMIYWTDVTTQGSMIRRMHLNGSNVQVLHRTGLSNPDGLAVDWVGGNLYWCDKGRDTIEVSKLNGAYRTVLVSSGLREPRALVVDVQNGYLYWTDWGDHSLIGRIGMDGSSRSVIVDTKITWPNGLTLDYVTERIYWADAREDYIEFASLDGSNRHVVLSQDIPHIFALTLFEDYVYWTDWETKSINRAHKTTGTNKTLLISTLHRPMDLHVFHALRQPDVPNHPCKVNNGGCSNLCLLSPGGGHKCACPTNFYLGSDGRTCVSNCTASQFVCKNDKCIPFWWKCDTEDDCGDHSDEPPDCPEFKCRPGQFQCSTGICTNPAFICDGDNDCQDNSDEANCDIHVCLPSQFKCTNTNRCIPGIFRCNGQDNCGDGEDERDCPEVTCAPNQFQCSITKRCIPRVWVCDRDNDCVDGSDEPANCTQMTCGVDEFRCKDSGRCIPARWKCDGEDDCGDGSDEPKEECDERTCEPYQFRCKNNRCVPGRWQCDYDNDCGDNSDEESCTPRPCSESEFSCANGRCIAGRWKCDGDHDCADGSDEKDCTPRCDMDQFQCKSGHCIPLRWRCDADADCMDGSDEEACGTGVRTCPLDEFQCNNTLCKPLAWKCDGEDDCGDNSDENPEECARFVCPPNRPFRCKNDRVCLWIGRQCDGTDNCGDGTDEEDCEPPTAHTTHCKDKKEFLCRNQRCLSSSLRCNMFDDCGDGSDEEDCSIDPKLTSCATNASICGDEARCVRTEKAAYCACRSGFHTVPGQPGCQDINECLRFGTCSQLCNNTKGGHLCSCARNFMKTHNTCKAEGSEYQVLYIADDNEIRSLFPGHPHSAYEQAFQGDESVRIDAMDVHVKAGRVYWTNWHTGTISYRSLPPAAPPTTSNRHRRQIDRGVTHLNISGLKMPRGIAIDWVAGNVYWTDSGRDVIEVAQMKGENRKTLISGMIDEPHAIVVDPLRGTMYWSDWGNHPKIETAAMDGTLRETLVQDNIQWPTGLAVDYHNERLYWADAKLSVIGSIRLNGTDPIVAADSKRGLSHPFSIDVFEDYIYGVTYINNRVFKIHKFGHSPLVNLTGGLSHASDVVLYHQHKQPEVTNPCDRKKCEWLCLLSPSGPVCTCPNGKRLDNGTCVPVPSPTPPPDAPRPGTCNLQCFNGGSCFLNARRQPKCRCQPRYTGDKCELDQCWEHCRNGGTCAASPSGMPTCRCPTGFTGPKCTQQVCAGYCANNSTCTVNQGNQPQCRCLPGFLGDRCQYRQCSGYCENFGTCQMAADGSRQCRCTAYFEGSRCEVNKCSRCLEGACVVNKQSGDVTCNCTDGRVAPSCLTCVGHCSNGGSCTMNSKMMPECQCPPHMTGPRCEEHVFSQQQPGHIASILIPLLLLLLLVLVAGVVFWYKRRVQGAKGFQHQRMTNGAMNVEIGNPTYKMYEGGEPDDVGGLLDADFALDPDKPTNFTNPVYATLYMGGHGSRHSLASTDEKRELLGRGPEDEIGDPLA

Take FGF2 (from UniProt P09038): the Kd (usually the constant that tells how readily two partners part at equilibrium) is 2.7 nM with FGFR1 (Homo sapiens) [1] and 62 nM with FGFR1 (Homo sapiens) [2].
As for FGFR1 (from UniProt P11362), the Kd is 2.7 nM with FGF2 (Homo sapiens) [3] and 62 nM with FGF2 (Homo sapiens) [4].

B1: pro-heparanase-1 (protein)
chain: QDVVDLDFFTQEPLHLVSPSFLSVTIDANLATDPRFLILLGSPKLRTLARGLSPAYLRFGGTKTDFLIFDPKKESTFEERSYWQSQVNQDICKYGSIPPDVEEKLRLEWPYQEQLLLREHYQKKFKNSTYSRSSVDVLYTFANCSGLDLIFGLNALLRTADLQWNSSNAQLLLDYCSSKGYNISWELGNEPNSFLKKADIFINGSQLGEDFIQLHKLLRKSTFKNAKLYGPDVGQPRRKTAKMLKSFLKAGGEVIDSVTWHHYYLNGRTATKEDFLNPDVLDIFISSVQKVFQVVESTRPGKKVWLGETSSAYGGGAPLLSDTFAAGFMWLDKLGLSARMGIEVVMRQVFFGAGNYHLVDENFDPLPDYWLSLLFKKLVGTKVLMASVQGSKRRKLRVYLHCTNTDNPRYKEGDLTLYAINLHNVTKYLRLPYPFSNKQVDKYLLRPLGPHGLLSKSVQLNGLTLKMVDDQTLPPLMEKPLRPGSSLGLPAFSYSFFVIRNAKVAACI
Regarding B1, the dissociation constant (Kd) in assay [5] was ~1.06 nM.

B2: pro-heparanase-1 (protein)
chain: B1 chain
modifications: complex of LRP with heparan sulphate proteoglycans (HSPG)
As to B2, the Kd in assay [5] is ~0.05 nM.
